We go through one substance from patent US20140378530A1.

This assay has as its target glutathione-S-transferase (GST)-tagged recombinant RARa ligand binding domain (LBD) (UniProt P10276). Nature of the assay: cell-free TR-FRET coactivator recruitment assay; the concentration varied is that of the retinoid Rald, not of either protein. On the technique in general: In TR-FRET formats the signal depends on donor and acceptor labels being close together.

glutathione-S-transferase (GST)-tagged recombinant RARa ligand binding domain (LBD), sequence (P10276 183-417 limits assumed): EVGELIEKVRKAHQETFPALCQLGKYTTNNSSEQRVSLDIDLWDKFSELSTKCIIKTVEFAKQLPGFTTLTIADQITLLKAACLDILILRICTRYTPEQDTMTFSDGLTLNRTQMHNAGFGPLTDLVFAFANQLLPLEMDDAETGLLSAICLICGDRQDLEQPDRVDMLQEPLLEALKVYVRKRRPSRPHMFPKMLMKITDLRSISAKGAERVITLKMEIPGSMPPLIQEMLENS

With “fluorescein-labeled coactivator peptide (PGC-1a)”, the EC50 of retinaldehyde (Rald, small-molecule ligand) for recruitment of PGC-1a to RARa was found to be 82 nM.
